This assay has as its target human complement C3a (human, UniProt P01024 672-748). As to the kind of experiment: SPR. In general terms: SPR reads the build-up and loss of mass on a sensor chip optically.

Sequence of human complement C3a (P01024 672-748): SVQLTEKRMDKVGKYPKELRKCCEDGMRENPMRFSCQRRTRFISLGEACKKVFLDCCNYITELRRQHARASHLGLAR

B1: His-ISG65_(18-363)-Avi, C-terminally biotinylated (domain or fragment)
chain: LLVIGSEDNRVPGDKKLTKEGAAALCKMKHLADKVAKERSQELKDRTQNFAGYIEFELYRIDYWLEKLNGPKGRKDGYAKLSDSDIEKVKEIFNKAKDGITKQLPEAKKAGEEAGKLHTEVKKAAENARGQDLDDDTAKSTGLYRVLNWYCITKEERHNATPNCDGIQFRKHYLSVNRSAIDCSSTSYEENYDWSANALQVALNSWEDVKPKKLESAGSDKNCNIGQSSESHPCTMTEEWQTPYKETVEKLRELEDAYQRGKKAHDAMLGYANTAYAVNTKVEQEKPLTEVIAAAKEAGKKGAKIIIPAAAPATPTNSTKNDDSAPTEHVDRGIATNETQVEVGID
modifications: biotin on the C-terminal Avi-tag (site-specific Avi-tag biotinylation)
B1 displayed a dissociation constant Kd of 18 µM.

Broadly, the Kd is the free concentration of one partner at which half of the binding sites on the other are occupied at equilibrium, for simple one-to-one binding.

The values above are taken from article PMC10140031 (2023).
